Tests used:
[1] = target: T1, human CD16A-Fc^48R/158V fusion protein (human, UniProt P08637 17-208, limits assumed); experiment: SPR, BIAcore 2000, CD16A-Fc immobilized on CM5, 1:1 Langmuir
T1 construct: Secreted soluble fusion made in HEK-293 cells; also called CD16-Fc; CD16A Fc-fusion protein; not shown: Fc portion of human IgG1
Method: (§1) The affinity constants (KD values) of the scFv were determined by SPR using the BIAcore 2000 biosensor system (Amersham-Pharmacia). The CD16A-Fc fusion protein and BSA used as a negative control were immobilized on the carboxymethyldextran-coated sensor chip CM5 using conventional NHS/EDC chemistry for the amine coupling procedure (BIAcore). Purified scFvs were diluted in HBS-EP buffer (BIAcore, Uppsala, Sweden). Binding data was generated by passing varying concentrations of the scFv antibodies (100 nM, 200 nM, 400 nM, 800 nM and 1600 nM) over the immobilized antigen. […] All SPR measurements were performed at a constant flow rate of 20 μL/min in HBS-EP buffer at 25° C. Each injected sample (100 μl) was in contact with antigen for 5 minutes. The dissociation was followed for 30 minutes. After each cycle, the surface of the sensor chip was flushed with HBS-EP buffer. Signals from the control channel coated with BSA were automatically subtracted. Kinetic constants were calculated according to the 1/1 Langmuir binding model using the BIAevaluation version 3.0 software (BIAcore).

NKp46-Fc = target: T2, NKp46-Fc (UniProt O76036 22-258, limits assumed); experiment: Western blot on NKp46-Fc
T2 construct: Negative control protein; also called NKp46-Fc control protein; not shown: Fc part, not described
T2 sequence (O76036 22-258 limits assumed): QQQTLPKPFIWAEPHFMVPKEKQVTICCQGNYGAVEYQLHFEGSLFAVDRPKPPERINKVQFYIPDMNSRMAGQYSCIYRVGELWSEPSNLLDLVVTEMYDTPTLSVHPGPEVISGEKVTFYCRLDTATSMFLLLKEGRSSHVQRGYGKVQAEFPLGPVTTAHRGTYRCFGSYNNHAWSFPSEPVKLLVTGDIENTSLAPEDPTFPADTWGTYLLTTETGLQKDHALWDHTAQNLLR
Method: For further characterization all of the anti-CD16A scFv were tested for binding in Western Blot on recombinant CD16A-Fc and NKp46-Fc.
The proteins were transferred on a nitrocellulose membrane by electroblotting. After staining with Ponceau S, the membrane was cut into strips of 5 mm width. Each nitrocellulose strip was individually incubated with scFv (4 μg/ml) in PBS, 0.1% tween, 2% skimmed milk. Detection was carried out with the anti-Penta His HRP-conjugate (1 μg/mL) using diaminobenzidine (DAB) as a peroxidase substrate. […] As an additional positive control, a goat anti-human IgG HRP-conjugate (0.16 μg/mL) was used for detection of the Fc portion of the fusion proteins.

[2] = target: T3, commercially available recombinant CD16B (Allele NA-2; BSA free; RD Systems) (UniProt O75015 17-200, limits assumed); experiment: ELISA on recombinant CD16B coated at 80 nM; scFv detected with anti-c-Myc-HRP (10 µg/ml)
T3 construct: also called recombinant CD16B-Fc
T3 sequence (O75015 17-200 N65S limits assumed): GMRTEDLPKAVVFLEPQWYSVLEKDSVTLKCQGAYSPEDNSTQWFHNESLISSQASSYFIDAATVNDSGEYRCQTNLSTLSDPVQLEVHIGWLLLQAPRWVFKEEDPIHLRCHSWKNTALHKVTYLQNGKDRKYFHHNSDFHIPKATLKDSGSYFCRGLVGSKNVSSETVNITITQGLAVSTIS
Method: FIG. 3: ELISA on recombinant CD16A-Fc and CD16B. Recombinant CD16A-Fc and CD16B proteins were coated at 80 nM in 0.1 M NaHCO₃, pH 8.8. Wells were blocked with PBS, 2% skimmed milk. The binding of the scFv to the recombinant proteins and to gp34-Fc (negative control) was detected using an anti-c-Myc-HRP conjugate (10 μg/ml). […] Coated recombinant CD16B was directly detected by staining with an anti-His-HRP (1 μg/mL) and coating of the Fc-Fusion proteins was tested by an anti-human IgG-HRP conjugate (0.5 μg/mL). As HRP-substrate, 50 μL of TMB were used. After termination of the reaction with 50 μL 0.5 M H₂SO₄, absorbance was measured at 450 nm.
In order to generate further supporting data concerning the CD16A specificity of the scFvs, an ELISA was performed using the CD16A-Fc fusion protein (Example 1) and commercially available recombinant CD16B-Fc (Allele NA-2; BSA free; RD Systems). A gp34-Fc fusion protein was used as a negative control. The recombinant proteins were coated overnight at a concentration of 80 nM in 100 mM NaHCO₃ at pH 8.8.
Detection of scFv bound to the recombinant proteins was carried out by using an anti-c-myc-HRP conjugate (10 μg/ml). […] Binding to the recombinant CD16B was tested by directly staining with anti-His-HRP (1 μg/mL) and binding to the Fc-Fusion proteins was tested by an anti-human IgG-HRP conjugate (0.15 μg/mL).

[3] = target: T1, human CD16A-Fc^48R/158V fusion protein; experiment: SPR, BIAcore 2000, CD16A-Fc immobilized on CM5, koff/kon
Method: as §1

[4] = target: T4, human CD16B (NA-2 allele) on stably transfected HEK-293 cells (293/CD16B) (human, UniProt O75015 17-200); experiment: flow cytometry on 293/CD16B cells; scFv, anti-hexa His MAb 13/45/31-2, FITC goat anti-mouse IgG; MFI minus secondary reagents alone
T4 construct: whole, on cells
T4 sequence (O75015 17-200 N65S): as the sequence (O75015 17-200 N65S limits assumed) above
Method: (§2) The mean fluorescence intensities obtained from flow cytometric analysis were corrected by subtracting the fluorescence values from cell stainings with the secondary reagents alone, and plotted in the diagram.
(§3) For flow cytometric analysis, the following cell lines were used: BW and BW/CD16A transfectants were cultured as described previously. […] The transient transfections were performed using the calcium phosphate method as described in Example 1 and were used for flow cytometric staining and analysis two days after transient transfection. Flow cytometric staining and analysis was performed as essentially described before.

[5] = target: T5, native CD16B on human polymorphonuclear cells (neutrophilic granulocytes) (human, UniProt O75015 17-200); experiment: flow cytometry on freshly isolated PMN; scFv, anti-(His)6 MAb, FITC goat anti-mouse IgG; MFI minus secondary reagents alone
T5 construct: whole, on cells; also called PMN; CD16B-positive granulocytes
T5 sequence (O75015 17-200): as the sequence (O75015 17-200 N65S limits assumed) above, with S49N counted along it
Method: Polymorphonuclear cells (PMN) and natural killer (NK) cells were isolated from peripheral blood from a healthy donor and used for flow cytometric staining and analysis. […] All scFv were used at a concentration of 50 μg/mL and were detected with 10 μg/mL anti-(His)₆ followed by 15 μg/mL FITC-conjugated goat anti-mouse IgG. The mean fluorescence intensities obtained from flow cytometric analysis were corrected by subtracting the fluorescence values from cell stainings with the secondary reagents alone and were plotted in the diagram.
Enrichment of NK cells was performed by negative selection as described above.

[6] = target: T6, NKp46 extracellular domain fused to zeta chain, on transiently transfected HEK-293 cells (293/NKp46) (human, UniProt O76036 22-258; P20963 31-164); experiment: flow cytometry on 293/NKp46 cells; scFv, anti-hexa His MAb 13/45/31-2, FITC goat anti-mouse IgG; MFI minus secondary reagents alone
T6 construct: extracellular domain;domain: transmembrane and cytoplasmic domain; On the cell surface; also called NKp46-transfectants; pcDNA3-NKp46-zeta
T6 sequence (O76036 other isoform, or with tags, fused parts or gaps limits assumed): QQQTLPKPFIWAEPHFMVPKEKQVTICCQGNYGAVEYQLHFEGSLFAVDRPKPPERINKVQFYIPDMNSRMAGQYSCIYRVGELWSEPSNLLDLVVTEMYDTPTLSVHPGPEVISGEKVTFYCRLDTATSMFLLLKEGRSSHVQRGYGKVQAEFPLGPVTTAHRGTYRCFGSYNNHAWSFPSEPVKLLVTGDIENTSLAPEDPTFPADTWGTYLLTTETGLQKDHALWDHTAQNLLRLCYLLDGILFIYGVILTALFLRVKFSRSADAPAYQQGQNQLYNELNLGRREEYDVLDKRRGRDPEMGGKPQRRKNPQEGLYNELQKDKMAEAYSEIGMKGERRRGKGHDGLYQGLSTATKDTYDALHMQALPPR
Method: as §2, §3

[7] = target: T1, human CD16A-Fc^48R/158V fusion protein; experiment: SPR, kinetic and steady state analysis
Method: as §1

[8] = target: T1, human CD16A-Fc^48R/158V fusion protein; experiment: SPR, steady state analysis (column Keq)
Method: as §1

T1 sequence (P08637 17-208 L66R/F176V limits assumed): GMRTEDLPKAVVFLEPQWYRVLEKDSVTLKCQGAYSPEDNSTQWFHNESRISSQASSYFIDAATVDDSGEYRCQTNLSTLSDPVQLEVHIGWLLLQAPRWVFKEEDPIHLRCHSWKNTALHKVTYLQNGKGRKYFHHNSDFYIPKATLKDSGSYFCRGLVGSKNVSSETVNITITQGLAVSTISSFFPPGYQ

| Binder | koff [1] [s⁻¹] | kon [1] [M⁻¹ s⁻¹] | binding result (NKp46-Fc) | binding result [2] | Kd [3] [nM] | binding result [4] | binding result [5] | binding result [6] | fold improvement of affinity over parental clone 50NI [7] [fold] | Kd [8] [nM] |
| --- | --- | --- | --- | --- | --- | --- | --- | --- | --- | --- |
| affinity matured anti-CD16A scFv 4-LS14 (scFv, IMAC-purified from pSKK2) scFv: EVQLVQSGAEVKKPGESLKVSCKASGYTFTSYYMHWVRQAPGQGLEWMGIINPSGGSTSYAQKFQGRVTMTRDTSTSTVYMELSSLRSEDTAVYYCARGSAYYYDFADYWGQGTLVTVSSGSASAPTLKLEEGEFSEARVSYELTQPPSVSVTPGQTATITCGANDIGKRNVHWYQQRPGQSPVLVIYQDNKRPSGIPERFSGSNSGNTATLTISGTQAMDEADYYCQVWDNYSVLFGGGTKLTVLGQPKAAPSVTLFPPSAAAGSEQKLISEEDLNSHHHHHH | 0.00557 | 50900 | no binding (tested: 4 µg/ml) | no binding (tested: not given) | 109 | no binding (tested: 50 µg/mL) | no binding (tested: 50 µg/mL) | no binding (tested: 50 µg/mL) |  |  |
| affinity matured anti-CD16A scFv 3-LB3 (scFv, IMAC-purified from pSKK2) scFv: EVQLVQSGAEVKKPGESLKVSCKASGYTFTSYYMHWVRQAPGQGLEWMGIINPSGGSTSYAQKFQGRVTMTRDTSTSTVYMELSSLRSEDTAVYYCARGSAYYYDFADYWGQGTLVTVSSGSASAPTLKLEEGEFSEARVSYELTQPLSESVAQGQTARITCGGNNIESRNVHWYQQKPGQAPVLVIYRDNNRPSGIPERFSGSNSGNMATLTISRAQAGDAADYYCQVWDNYTVLFGGGTKLTVLGQPKAAPSVTLFPPSAAAGSEQKLISEEDLNSHHHHHH | 0.00297 | 21600 | no binding (tested: 4 µg/ml) | no binding (tested: not given) | 138 | no binding (tested: 50 µg/mL) | no binding (tested: 50 µg/mL) | no binding (tested: 50 µg/mL) |  |  |
| affinity matured anti-CD16A scFv 3-LB5 (scFv, IMAC-purified from pSKK2; oligomeric state not analysed) scFv: EVQLVQSGAEVKKPGESLKVSCKASGYTFTSYYMHWVRQAPGQGLEWMGIINPSGGSTSYAQKFQGRVTMTRDTSTSTVYMELSSLRSEDTAVYYCARGSAYYYDFADYWGQGTLVTVSSGSASAPTLKLEEGEFSEARVSYELTQPPSVAVAPGKTARITCGGNNIGSKNVHWYQQKPGQAPVLVIYRDSNRPSGIPERFSGSNSGNTATLTISRAQAGDEADFYCQVWDNYIVLFGGGTKLTVLGQPKAAPSVTLFPPSAAAGSEQKLISEEDLNSHHHHHH | 0.00297 | 73300 | no binding (tested: 4 µg/ml) | no binding (tested: not given) | 40.5 | no binding (tested: 50 µg/mL) | no binding (tested: 50 µg/mL) | no binding (tested: 50 µg/mL) |  |  |
| affinity matured anti-CD16A scFv 3-LB6 (scFv, IMAC-purified from pSKK2) scFv: EVQLVQSGAEVKKPGESLKVSCKASGYTFTSYYMHWVRQAPGQGLEWMGIINPSGGSTSYAQKFQGRVTMTRDTSTSTVYMELSSLRSEDTAVYYCARGSAYYYDFADYWGQGTLVTVSSGSASAPTLKLEEGEFSEARVQAVLTQPPSVSVAPGQTARIPCEGNNIGSKNVHWYRQKPGQVPVLVMYDDSDRPSGIPERFSGSNSGNTATLTISGTQAMDEADYYCQVWDNYSVLFGGGTKLTVLGQPKAAPSVTLFPPSAAAGSEQKLISEEDLNSHHHHHH | 0.00652 | 54800 | no binding (tested: 4 µg/ml) | no binding (tested: not given) | 119 | no binding (tested: 50 µg/mL) | no binding (tested: 50 µg/mL) | no binding (tested: 50 µg/mL) | > 20 | 106 |
| affinity matured anti-CD16A scFv 3-LS49 (scFv, IMAC-purified from pSKK2) scFv: EVQLVQSGAEVKKPGESLKVSCKASGYTFTSYYMHWVRQAPGQGLEWMGIINPSGGSTSYAQKFQGRVTMTRDTSTSTVYMELSSLRSEDTAVYYCARGSAYYYDFADYWGQGTLVTVSSGSASAPTLKLEEGEFSEARVQPVLTQPLSVSVAPGQTARITCGGNNIGSKNVHWYQQKPGQAPVLVIYRDSSRPSGIPERLSGSNSGDTATLTISRAQAGDEADYYCQVWDDYIVVFGGGTKLTVLGQPKAAPPVTLFPPSAAAGSEQKLISEEDLNSHHHHHH | 0.00401 | 29300 | no binding (tested: 4 µg/ml) | no binding (tested: not given) | 137 | no binding (tested: 50 µg/mL) | no binding (tested: 50 µg/mL) | no binding (tested: 50 µg/mL) |  |  |

— US20090214574A1 (AFFIMED, published 2009)
